Laboratory results taken from patent US20190352376A1.
Several values for one entry are separate records, joined by “and”; a condition that tells them apart may be missing. Equal values may be shown once.

Molecular target: peptide-conjugate (Example 1; lactosyl-Ser-…-Cys coupled to KLH) (influenza virus)

B1: F211-11H12 (antibody, V domains shown)
VL: DIVMSQSPSSLAVSVGEKVTMSCKSSQSLLNSRNQKNHLAWYQQKPGQSPKLLIYWASTRESGVPDRFTGDGSGTDFTLTISSVKAEDLAVYYCQQYYTYRTFGGGTKLEIK
VH: DVQLQESGPGLVKPSQSLSLTCSVTGYSITSDYYWNWIRQFPGNKLEWMAYIGYDGTKNYNPSLKNRISITRDTSKNQFFLKLNSVTTDDTATYYCTRDRANWDDYFDYWGQGTTLTVSS
With B1 the EC50 (read off the curve) was 0.03 µg/mL and 0.02 µg/mL.
